A short description of the data set: soluble fraction after stress (log2 fold change); higher = more stays soluble; pooled small domains, quantitative proteomics. Conditions: stress: 50 degC. The gist of the method: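 The stress applied to every library was 50°C. These custom libraries of small protein domains were pooled and measured at high throughput with quantitative proteomics as the read-out. Aggregation propensity is expressed as the base-two logarithm of the fold change in how much of each protein remains soluble. The higher the value, the more of that protein stays in solution.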

As to “HMTTTPTSQMVTELRSRGWTLRALAQRLGVGHASINRWANGVTPDRDLVAALRALVASGEVP”, the “soluble fraction (log2)” value is -0.216.

As for “HMLAAAVVVYATDKVNVRAEASETADVIGQLEAGSQTTRLEDKDGWSRIDYSNGTQGYMKSEFLSTEAPT”, the “soluble fraction (log2)” value is -0.102.

As to “HMYMTTADADMWKYVNTGRYNNDIQLMEEYKNRSMDSFEVITPEQQRKYNKAAMNLNSYYAWADPSYKPNP”, the “soluble fraction (log2)” value is -0.257.

As for “HMIENGILELKGKTGVAQTVLRPSGKVLIDDEIYDAVALTGYIEKADKVLVTKVEATQLYVEK”, the “soluble fraction (log2)” value stood at 0.0576.

Turning to “HMGYLNDRQRLIKDFITENQPLKVSDLVKQFPNIGLSTLKKDLQYLRGEQVLTMIGKGKGSVYVLNKK”, the “soluble fraction (log2)” value was -0.446.

Consider “HMNKKEIISVLEKIIPPSQIKNINIFGSELVIDLNIDNPSLHAKKKLEKSIMSSFDENLKIIVNFSVE”, for which the “soluble fraction (log2)” value is -0.00924.

Take “HMPHILEITSSKILDELQDEKKMVYFHFEKQSNQYVYRLIFNSKNELMEFKKSLEKNSSILDVRADM”: the “soluble fraction (log2)” value was 0.216.

For the sequence “HMANSDEEVLNKISTKAPTFNELINKIKEFDDTKEINDIWLDVYRYYITDEEYKEIAKKVITGLTYTNQ”, the “soluble fraction (log2)” value was -0.177.

As for “HMGDLVKGKVVGYDPDNVIVDIGAKTNALVPNREAVVEAGDDIKETLKKGNEYEFLIIRDEDEEGEFL”, the “soluble fraction (log2)” value was found to be 0.29.

As for “HMAGLELVVTREQAGRTVKSLLRGELGISTALMGRLKRTGTGLTVNGTRVFTNAVLREGDRLAVDLDAAE”, the “soluble fraction (log2)” value was -0.606.

Turning to “HMGGEAEVLQSIDEGREVEVRSVAADGSAEVIYRGARWRARAAVGSLAAGRWTIGRVDGTELVLEK”, the “soluble fraction (log2)” value was -0.0207.

Turning to “HMKEPGFAPPVRALAAAPITVLAQVAGTNPGEIRARLRAAGYPVASDQQSVQSLVGGDLKAQIGVLNRILA”, the “soluble fraction (log2)” value is -0.00802.

As for “HMDDERDRLVQQAMEGLSPALREILLLAYFQRMPYNQIAESLRIPLGTVKSRLHAAVAAFAKRWQELNRS”, the “soluble fraction (log2)” value is -0.693.

As for “HMFPQVEVQLIYSYKSDRILNKMLKEFNVVILNQVFKDDILTSFHMNYSLVNQLITKIKSYPDISYKIIN”, the “soluble fraction (log2)” value is -1.5.

Regarding “HMTDFESYTVRVTATNLNIRKGAGTNFHSAGYIKPGVYTIVEEADGKGATRWGKLKSGMGWISLDYAKK”, the “soluble fraction (log2)” value is -0.763.

Regarding “HMLPVQGEEVAPGLYKFDFPFLADKRVWEKTINAFKAEHPELKVNYIYTGPDELNSKKKTHVLVYVFTES”, the “soluble fraction (log2)” value is -0.0974.

As to “HMSISEFNYTEFNGLVEKGQVSEVTISGREIEGRLTSGESFKTYSPETDNSALVGDLLKNNVKINGKP”, the “soluble fraction (log2)” value is 0.12.

Consider “HMVELVKVPALQGETVDEAIADIKDAGLEPGQVRYVESDLPKDTVTYQSVDAGEQVKAGTVINLQASKGP”, for which the “soluble fraction (log2)” value came to 0.251.

“HMNRPYVELFSGLGQEEAQQIVQKLQEDEVDYKFSGDSTILVKEDVVDQTKATLVQEGYPKS”: the “soluble fraction (log2)” value is 0.0181.

For “HMSEEQLKAFLEKVQGDTSLQEKLKAAADANAVVEIAKEAGFSISADDLKNAQSELSEEELE”, the “soluble fraction (log2)” value was -0.0697.

In the case of “HMINEEELLKIENIKRKYPDSKAALMPVLYFFQEKYGFISDDSIKEISQLLNISEVDIKGVVSFYEMFHEK”, the “soluble fraction (log2)” value is -0.59.

As to “HMIVMPELRGKDLKEAERLLSSHNLRYELVDSVYDKSLAPGVVVEMVPQSGNTVKPGRIIFLSINA”, the “soluble fraction (log2)” value is -0.878.

Consider “HMNDNTAINEFKKMVFTRMVHLQIDNAELSKLSGVTNSKILALKYGNSNTLKLGDIVKVAKTLNINLNDL”, for which the “soluble fraction (log2)” value was -2.7.

“HMDWPDDETIARIYALIKSDISSQARKVMELRFSEGMPFARIAAAMGISETAVYRHLSHALTVIRQKLN”: the “soluble fraction (log2)” value is -2.06.

“HMNMGEKIRSLIGQFGVTSEDLKNLSVANLLIRMNQEAGDSKTKGILASLLETVNKAGVGNLTPDALGIK”: the “soluble fraction (log2)” value was -0.00161.

Take “HMKEFEINSQWKPSLEVYDILSVKGGISRNFIEDSIPEFVLYWRGRGDKSNTWDSKFVQHVKRQWNFYSGL”: the “soluble fraction (log2)” value was -3.32.

Regarding “HMTRHSSVDFAGYILRNKENEPIFGFGKHKGKTVVEVLQREQGYFGWLMEADFPLYTKKVLTAIRLNTLNS”, the “soluble fraction (log2)” value was -0.117.

Take “HMENFKVFMKAVQEVSPVPVRFDEISSGAKGYYSNTEKEIVIQNGMSESQTMKTGIHEVTHAMLHDRDF”: the “soluble fraction (log2)” value is 0.113.

Consider “HMTGELEVTAAGLSPEKLLNLAAKNHITLSNVKRLSYTQLSFRIGPADYNRLKKLLPEGRYKLNVGSS”, for which the “soluble fraction (log2)” value is -0.289.

In the case of “HMGARHPLPYPFARAHGLLLEADGERSTLWASTNVSPAALSEVMRKYAVDVIEEEPPETLSQRIAAAYAA”, the “soluble fraction (log2)” value turned out to be 0.0215.

For “HMDTDVFLMDLRGESRDYAEEVLINNNLEVKVIILPFSKRHYPGKVVEMRPSPFTKVKKGRIITLSVAGN”, the “soluble fraction (log2)” value is -3.71.

As for “HMIDHKVIRSFRQKRNMTLQELAQKANLSVSYLSEIELGKKQPSLETLDKLSKALNISLEGL”, the “soluble fraction (log2)” value was -0.116.

Take “HMLIGLNETESLVLDALIANPMRIDQVSAMLKKDVATTLKFLGGLSVRGLVETLFGGRFAPTKIALHARS”: the “soluble fraction (log2)” value was -0.276.

As for “HMFYNDLINFDVFRDSRKIGKIENINSRLPQPVFEIMYDSRIVLIPIHEDFIRKIDKVNNIIYLDIPDGLL”, the “soluble fraction (log2)” value was -1.72.

For the sequence “HMVLSVRERMGIVLEKVNTETFTDFKELFTVEEGRAGAIVSLLAILQLMKDSLIQLVQNEPNGPIYVKAA”, the “soluble fraction (log2)” value was -0.673.

Take “HMKPGYVIQVNGTVTKIQSGLVYVKTPAAQYTLMRKYAPADAAVGDRVSLWINEEGMVIDVHGK”: the “soluble fraction (log2)” value was -0.0092.

In the case of “HMKNLADNIVALRKKHGLSQEQFAEKIDVTRQAVSNWERRIATPDVETIDLIAKLFDTDLTALVNG”, the “soluble fraction (log2)” value is -0.0311.

As for “HMETPSNTAGITHATSDGYIFKGESDIIGRNSFGFIVKHGSHNHIIPFDSLRGTKWEYLINKYT”, the “soluble fraction (log2)” value turned out to be 0.21.

As to “HMEASVNAPMPGKIVSVSVSEGQQVNAGDVLLILEAMKMQNEITADAAGTVKAINVNAGQSVKNGDSLVIL”, the “soluble fraction (log2)” value came to 0.469.

As for “HMQVSDEGPIKAILQEVLDKSPTQLADYASGKVKLRQYFFGEAMKALKGKANPQVINKLLDEMLPPVAA”, the “soluble fraction (log2)” value turned out to be 0.079.

On to “HMEDIASESVKRVIRKIIDDEDKKSPLSDQAIVEILAKGEGIVIARRTVAKYREMMGILPSSKRKKH”, for which the “soluble fraction (log2)” value is -0.209.

Take “HMTVKEVGYDTFLTMLDKKEIKQVQVEDNQIIFSDNADPVNYYKTGVFNDPDLVNRLQDAGVEFG”: the “soluble fraction (log2)” value is 0.312.

Take “HMARAESYGDIARLEQLLDEHANIAALDPGKLPAVRQQIWTLMRAARMDHDLGLAERPEDDSFDDMLLHV”: the “soluble fraction (log2)” value stood at 0.133.

Regarding “HMEIEIPEELQNKFAEIPELKTAFESLTPGRQRAYVLYFSQPKQSKTREARIEKYIPHILDGKGMN”, the “soluble fraction (log2)” value was found to be 0.111.

Turning to “HMGEVVSAPMPGTILSIKVSQGQTVKRGQVLLILEAMKMENEIVAPRDGVVVQISTTQGASVETGAPLVVL”, the “soluble fraction (log2)” value was -0.0677.

Consider “HMPLLKIGAQGHDVRVVQEALQRAGYAIEGVTGIFDEATREAVLAFQRDQQLTESGTVDRATWHALRR”, for which the “soluble fraction (log2)” value was 0.134.

For the sequence “HMNILNFSENIIKLRHKKGITQEELADFVGVTKASVSKWETKQSLPDIMLLPRLAAYFDVTVDELLGYEP”, the “soluble fraction (log2)” value came out at 0.0236.

On to “HMIAVLEEGSRFRAINDISGKPFGPEMIIKNGQVIAAGKKILTKPKKLIGKKEGTKFNISGKEYVIKDI”, for which the “soluble fraction (log2)” value was -0.614.

Consider “HMPFSLHGVNEGSRNDNAARIAGYLISKNLNLDFVRIFLHNWNRDNKPPLPQQEIDSVVDNVKKTHDRKN”, for which the “soluble fraction (log2)” value is -0.828.

On to “HMQMTTPQMVPLFTDLSVDDSASIIKDLERQAVPYQIKSDGAIIMVPKDKVTRLRMKLAESGLPK”, for which the “soluble fraction (log2)” value was 0.25.

Turning to “HMSATQDAAIAVRIRDILSELDGYEDVTVTVTSGIVTMRGTTLDSEKIARLNDLTGRVEGVVAIENSVTET”, the “soluble fraction (log2)” value is -0.367.

On to “HMDIASNQIQGIKDSVGGDENYSKMVAWALESLPAEEVKAFNDLTETANAPAIKMAVQGLYSQYNNAM”, for which the “soluble fraction (log2)” value is 0.264.

Regarding “HMIQIQDIAFSEFLQELDKGNIVEVNIKGDLINGDLINGKKFKTVAPYDPNLVEKLSKQNVRINVEPIN”, the “soluble fraction (log2)” value was found to be 0.125.

With “HMSNIQLVENLYRLRKAHHYTQQEISDLLNISRQAYSNYETSKRTPDLDSLMRLADIYGVSLDQLVNHP”, the “soluble fraction (log2)” value is -1.45.

Take “HMKHYIDFIAEQLKTLTAIPSPSGYTKNATDYLMKLLQDMGYEPKLSRKGNVFVTLGGDGEPLVLAAHVD”: the “soluble fraction (log2)” value is -0.114.

With “HMQPASPELNNQEKKVLQALPENEVIHIDELSDKIQIPVGELLTVLLSLEMKETVIQEPGKFFRRR”, the “soluble fraction (log2)” value is -1.28.

Consider “HMKEVELENMIKAKGFKDAAVLVDERSVTVIVESERLAAGDSASIKELVSRGTGVDPQNVVII”, for which the “soluble fraction (log2)” value is -0.107.

As for “HMTTTFGWENLVGEKGIAATDLHPSGWVTVKDQRVFVVSEGTFIEEGKEVEIMNVDGNRIVVREFKN”, the “soluble fraction (log2)” value was found to be 0.0515.

“HMSLSKEEFETISKQVLELAGAGPIPVKELLQKMERTSKEKAWKVIEFLQAEDKIVPDATGRIQL”: the “soluble fraction (log2)” value is -0.068.

As to “HMNTAIDGLIEKVGMFAMEKKAISVDQVKENFSINGEQAESVIKQLETIGVLGKKNEDGTHTVM”, the “soluble fraction (log2)” value was found to be 0.0766.

Regarding “HMTMQQGTISRLNHSRGFGFLTTPDGEDLFFHRTNVHETPFARLQVGDRVTYDVQVTPRGTRADKVQLNM”, the “soluble fraction (log2)” value is -0.0328.

With “HMNDPFVILGVSKDASQSEILEAYKQKRAYYQERVFDEGDEGAQAARMLTQLDDAYQQAMELSHES”, the “soluble fraction (log2)” value is -0.151.

For “HMADRVFGHIPGVAVGSIFPDRRSLSQTGVHRPTQAGISGNKTDGADSIVVSGGYRDDRDYGDLIIYTG”, the “soluble fraction (log2)” value was -0.000463.

Turning to “HMGNVGEAIEALVKGFQEGNQFQTLLGVTGSGKTFTMANVIAALNKPTLIISHNKTLAAQLYLSLIHIS”, the “soluble fraction (log2)” value worked out at 0.112.

Take “HMQKDYKTRLQEYYAKVGKKVNYMDSSTGPDHDKKFQTQVFLDKEIIGVGEGKSKKSSQQEAAKQALEKI”: the “soluble fraction (log2)” value came to 0.338.

“HMIKDSKAAYKILGVDENATNEEIKKAYRQLVINHHPDKVSHLGEDIQRAANEKLKQINAAYDEIKKQRGF”: the “soluble fraction (log2)” value is 0.237.

In the case of “HMKDLTAIKGVGEFFAKKLSQAGYQSITNLTDVNAKRLQADTGIPLPIAARIIKEAQSLIAET”, the “soluble fraction (log2)” value worked out at 0.206.

With “HMQKYSTIIGVIELRQSGIGYRTTKKRYNIGNSTVTLIMNRFHELGLSLEELKAMPPKKVEEAFYPPE”, the “soluble fraction (log2)” value was -2.43.

These data come from the domain aggregation screens of Martell et al. (2025).
